These binders were tested against H3.3(G90M)/H4 (human | X. laevis, UniProt P62799 1-103) (assay: ITC).

Row | Binder | Kd [µM]
1 | IQDLIDMGYGYDESDSFIDNSEAYDEL [UBN1(122–148) peptide] | 115

The binders below were run against T1, H3.3/H4 (human | X. laevis, UniProt P84243 1-136; P62799 1-103) (assay: ITC).

Row | Binder | Kd [µM]
2 | UBN1(92–148) (domain or fragment) NDEEKERHKVEALARKFEEKYGGKKRRKDRIQDLIDMGYGYDESDSFIDNSEAYDEL | 16.5
3 | UBN1(122–175) (domain or fragment) not shown | 14.6

Each binder was assayed against T1, H3.3/H4 (assay: FP).

Row | Binder | IC50 [µM]
4 | IQDLIDMGYGYDESDSFIDNSEAYDEL [UBN1(122–148) peptide] | 46.4

Target: T1, H3.3/H4
Assay: FP
Remark: another data set of the same source

Row | Binder | IC50 [µM]
5 | UBN1(92–175) E147A (protein) NDEEKERHKVEALARKFEEKYGGKKRRKDRIQDLIDMGYGYDESDSFIDNSEAYDALVPASLTTKYGGFYINSGTLQFRQASES | 22.9
6 | UBN1(92–175) L148A (protein) NDEEKERHKVEALARKFEEKYGGKKRRKDRIQDLIDMGYGYDESDSFIDNSEAYDEAVPASLTTKYGGFYINSGTLQFRQASES | 19.6
7 | UBN1(92–175) Y145A (protein) NDEEKERHKVEALARKFEEKYGGKKRRKDRIQDLIDMGYGYDESDSFIDNSEAADELVPASLTTKYGGFYINSGTLQFRQASES | 16.4
8 | UBN1(92–175) G129A (protein) NDEEKERHKVEALARKFEEKYGGKKRRKDRIQDLIDMAYGYDESDSFIDNSEAYDELVPASLTTKYGGFYINSGTLQFRQASES | 67.8
9 | UBN1(92–175) G131A (protein) NDEEKERHKVEALARKFEEKYGGKKRRKDRIQDLIDMGYAYDESDSFIDNSEAYDELVPASLTTKYGGFYINSGTLQFRQASES | 19.9
10 | UBN1(92–175) (domain or fragment) NDEEKERHKVEALARKFEEKYGGKKRRKDRIQDLIDMGYGYDESDSFIDNSEAYDELVPASLTTKYGGFYINSGTLQFRQASES | 16.6
11 | UBN1(92–175) E143A (protein) NDEEKERHKVEALARKFEEKYGGKKRRKDRIQDLIDMGYGYDESDSFIDNSAAYDELVPASLTTKYGGFYINSGTLQFRQASES | 29.3
12 | UBN1(92–175) M128A (protein) NDEEKERHKVEALARKFEEKYGGKKRRKDRIQDLIDAGYGYDESDSFIDNSEAYDELVPASLTTKYGGFYINSGTLQFRQASES | 22.6
13 | UBN1(92–175) A144I (protein) NDEEKERHKVEALARKFEEKYGGKKRRKDRIQDLIDMGYGYDESDSFIDNSEIYDELVPASLTTKYGGFYINSGTLQFRQASES | 16.3
14 | UBN1(92–175) S137A (domain or fragment) NDEEKERHKVEALARKFEEKYGGKKRRKDRIQDLIDMGYGYDESDAFIDNSEAYDELVPASLTTKYGGFYINSGTLQFRQASES | 16.2
15 | UBN1(92–175) Y130A (protein) NDEEKERHKVEALARKFEEKYGGKKRRKDRIQDLIDMGAGYDESDSFIDNSEAYDELVPASLTTKYGGFYINSGTLQFRQASES | 14.4
16 | UBN1(92–175) L125A (protein) NDEEKERHKVEALARKFEEKYGGKKRRKDRIQDAIDMGYGYDESDSFIDNSEAYDELVPASLTTKYGGFYINSGTLQFRQASES | 15.1
17 | UBN1(92–175) I122A (protein) NDEEKERHKVEALARKFEEKYGGKKRRKDRAQDLIDMGYGYDESDSFIDNSEAYDELVPASLTTKYGGFYINSGTLQFRQASES | 16.9
18 | UBN1(92–175) I126A (protein) NDEEKERHKVEALARKFEEKYGGKKRRKDRIQDLADMGYGYDESDSFIDNSEAYDELVPASLTTKYGGFYINSGTLQFRQASES | 13.8
19 | UBN1(92–175) D124A (protein) NDEEKERHKVEALARKFEEKYGGKKRRKDRIQALIDMGYGYDESDSFIDNSEAYDELVPASLTTKYGGFYINSGTLQFRQASES | 19.6
20 | UBN1(92–175) D146A (protein) NDEEKERHKVEALARKFEEKYGGKKRRKDRIQDLIDMGYGYDESDSFIDNSEAYAELVPASLTTKYGGFYINSGTLQFRQASES | 23
21 | UBN1(92–175) D127A (protein) NDEEKERHKVEALARKFEEKYGGKKRRKDRIQDLIAMGYGYDESDSFIDNSEAYDELVPASLTTKYGGFYINSGTLQFRQASES | 21.1
22 | UBN1(92–175) Q123A (protein) NDEEKERHKVEALARKFEEKYGGKKRRKDRIADLIDMGYGYDESDSFIDNSEAYDELVPASLTTKYGGFYINSGTLQFRQASES | 13.8

Target: T1, H3.3/H4
Assay: ITC
Remark: another data set of the same source

Row | Binder | Kd [µM]
23 | UBN1(92–175) (domain or fragment) NDEEKERHKVEALARKFEEKYGGKKRRKDRIQDLIDMGYGYDESDSFIDNSEAYDELVPASLTTKYGGFYINSGTLQFRQASES | 6.9

Reference: PMC4510971 (2015)
